Measurements taken from paper doi:10.1101/292912 (bioRxiv, 2018).

Biological target: the molecule itself
Experiment: dynamic light scattering

B1: Δ68-269 SaMGT (transmembrane domain-less monoglycosyltransferase from S. aureus) (domain or fragment)
chain: DNVDELRKIENKSSFVSADNMPEYVKGAFISMEDERFYNHHGFDLKGTTRALFSTISDRDVQGGSTITQQVVKNYFYDNDRSFTRKVKELFVAHRVEKQYNKNEILSFYLNNIYFGDNQYTLEGAANHYFGTTVNKNSTTMSHITVLQSAILASKVNAPSVYNINNMSENFTQRVSTNLEKMKQQNYINETQYQQAMSQLNR
binding result: binds
